Source: article PMC3673036 (Bioscience Reports, 2013)

Assays:
EphB2 [1] = molecular target: T1, EphB2 (Homo sapiens, UniProt P29323); assay: ADP-Glo luminescent kinase assay, Michaelis-Menten fit; assay type: biochemical; settings: […] poly-(Glu:Tyr) […], MgCl2, Hepes pH […]°C; read-out: Km ATP
T1 construct: kinase domain 604-898 without juxtamembrane region; N-terminal His6-TEV tag cleaved (GSS left); E. coli BL21 Star (DE3), PTP1B co-expressed; unphosphorylated; synthetic codon-optimized gene
T1 sequence (P29323 604-898): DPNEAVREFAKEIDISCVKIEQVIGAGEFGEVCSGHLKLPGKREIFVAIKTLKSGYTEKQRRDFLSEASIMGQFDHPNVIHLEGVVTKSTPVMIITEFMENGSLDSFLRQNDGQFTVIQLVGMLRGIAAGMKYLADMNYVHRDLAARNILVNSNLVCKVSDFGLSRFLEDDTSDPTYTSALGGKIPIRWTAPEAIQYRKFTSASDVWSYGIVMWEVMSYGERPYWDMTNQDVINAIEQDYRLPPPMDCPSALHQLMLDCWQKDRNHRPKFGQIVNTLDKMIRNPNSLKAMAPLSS
Excerpt: ADP-Glo luminescent kinase assay, Michaelis-Menten fit on EphB2

EphB2 [2] = molecular target: T1, EphB2; assay: ADP-Glo luminescent kinase assay; assay type: biochemical; settings: ATP and poly-(Glu:Tyr) […] at Km of each kinase; MgCl2, Hepes pH […]°C, […] min, […] DMSO; unreliable: below assay tight binding limit of about […]
Excerpt: ADP-Glo luminescent kinase assay on EphB2

EphB1 = molecular target: T2, EphB1 (Homo sapiens, UniProt P54762); assay: ADP-Glo luminescent kinase assay; assay type: biochemical; settings: ATP and poly-(Glu:Tyr) […] at Km of each kinase; MgCl2, Hepes pH […]°C, […] min, […] DMSO; unreliable: below assay tight binding limit of about […]
T2 construct: kinase domain 602-896 without juxtamembrane region; N-terminal His6-TEV tag cleaved (GSS left); E. coli BL21 Star (DE3), PTP1B co-expressed; unphosphorylated; synthetic codon-optimized gene
T2 sequence (P54762 602-896): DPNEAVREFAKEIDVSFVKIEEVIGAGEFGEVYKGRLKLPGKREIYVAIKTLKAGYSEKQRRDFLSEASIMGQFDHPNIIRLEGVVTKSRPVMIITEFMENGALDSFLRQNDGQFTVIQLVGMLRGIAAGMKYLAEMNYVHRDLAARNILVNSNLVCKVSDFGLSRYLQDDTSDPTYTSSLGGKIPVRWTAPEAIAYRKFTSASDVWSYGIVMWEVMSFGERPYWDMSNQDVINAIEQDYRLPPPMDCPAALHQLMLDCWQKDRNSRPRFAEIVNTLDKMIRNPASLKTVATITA
Excerpt: ADP-Glo luminescent kinase assay on EphB1

[3] = substrate: Nc1ncnc2c1ncn2[C@@H]1O[C@H](COP(=O)(O)OP(=O)(O)OP(=O)(O)O)[C@@H](O)[C@H]1O; assay: ADP-Glo luminescent kinase assay, Michaelis-Menten fit; assay type: biochemical, Homo sapiens; settings: […] poly-(Glu:Tyr) […], MgCl2, Hepes pH […]
Excerpt: ADP-Glo luminescent kinase assay, Michaelis-Menten fit on EphB3

[4] = substrate: Nc1ncnc2c1ncn2[C@@H]1O[C@H](COP(=O)(O)OP(=O)(O)OP(=O)(O)O)[C@@H](O)[C@H]1O; assay: as above; assay type: biochemical, Homo sapiens; settings: […] poly-(Glu:Tyr) […], MgCl2, Hepes pH […]; remark: listed apart in the source
Excerpt: ADP-Glo luminescent kinase assay, Michaelis-Menten fit on EphB1

[5] = substrate: Nc1ncnc2c1ncn2[C@@H]1O[C@H](COP(=O)(O)OP(=O)(O)OP(=O)(O)O)[C@@H](O)[C@H]1O; assay: as above; assay type: biochemical, Homo sapiens; settings: […] poly-(Glu:Tyr) […], MgCl2, Hepes pH […]; remark: listed apart in the source
Excerpt: ADP-Glo luminescent kinase assay, Michaelis-Menten fit on EphB4

Nc1ncnc2c1ncn2[C@@H]1O[C@H](COP(=O)(O)OP(=O)(O)OP(=O)(O)O)[C@@H](O)[C@H]1O [ATP]
Km (EphB2 [1]): 751 ± 80 µM

Cc1nc(Nc2ncc(C(=O)Nc3c(C)cccc3Cl)s2)cc(N2CCN(CCO)CC2)n1 [Dasatinib]
EphB2 / IC50 (EphB2 [2]): 7 nM | EphB1 / IC50 (EphB1): 10 nM

B1: EphB3 (Homo sapiens) (protein)
chain: DPNEAVREFAKEIDVSCVKIEEVIGAGEFGEVCRGRLKQPGRREVFVAIKTLKVGYTERQRRDFLSEASIMGQFDHPNIIRLEGVVTKSRPVMILTEFMENCALDSFLRLNDGQFTVIQLVGMLRGIAAGMKYLSEMNYVHRDLAARNILVNSNLVCKVSDFGLSRFLEDDPSDPTYTSSLGGKIPIRWTAPEAIAYRKFTSASDVWSYGIVMWEVMSYGERPYWDMSNQDVINAVEQDYRLPPPMDCPTALHQLMLDCWVRDRNLRPKFSQIVNTLDKLIRNAASLKVIASAQS
notes: kinase domain 616-910 without juxtamembrane region; N-terminal His6-TEV tag cleaved (GSS left); E. coli BL21 Star (DE3), PTP1B co-expressed; unphosphorylated; synthetic codon-optimized gene
Km [3]: 506 ± 48 µM | kcat [3]: 0.43 ± 0.01 s⁻¹

B2: EphB3 (Homo sapiens; C717G) (protein)
chain: DPNEAVREFAKEIDVSCVKIEEVIGAGEFGEVCRGRLKQPGRREVFVAIKTLKVGYTERQRRDFLSEASIMGQFDHPNIIRLEGVVTKSRPVMILTEFMENGALDSFLRLNDGQFTVIQLVGMLRGIAAGMKYLSEMNYVHRDLAARNILVNSNLVCKVSDFGLSRFLEDDPSDPTYTSSLGGKIPIRWTAPEAIAYRKFTSASDVWSYGIVMWEVMSYGERPYWDMSNQDVINAVEQDYRLPPPMDCPTALHQLMLDCWVRDRNLRPKFSQIVNTLDKLIRNAASLKVIASAQS
notes: as for B1
Km [3]: 659 ± 67 µM | kcat [3]: 0.86 ± 0.03 s⁻¹

B3: EphB1 (Homo sapiens) (protein)
chain: DPNEAVREFAKEIDVSFVKIEEVIGAGEFGEVYKGRLKLPGKREIYVAIKTLKAGYSEKQRRDFLSEASIMGQFDHPNIIRLEGVVTKSRPVMIITEFMENGALDSFLRQNDGQFTVIQLVGMLRGIAAGMKYLAEMNYVHRDLAARNILVNSNLVCKVSDFGLSRYLQDDTSDPTYTSSLGGKIPVRWTAPEAIAYRKFTSASDVWSYGIVMWEVMSFGERPYWDMSNQDVINAIEQDYRLPPPMDCPAALHQLMLDCWQKDRNSRPRFAEIVNTLDKMIRNPASLKTVATITA
notes: kinase domain 602-896 without juxtamembrane region; N-terminal His6-TEV tag cleaved (GSS left); E. coli BL21 Star (DE3), PTP1B co-expressed; unphosphorylated; synthetic codon-optimized gene
Km [4]: 555 ± 36 µM | kcat [4]: 0.80 ± 0.02 s⁻¹

B4: EphB4 (Homo sapiens) (protein)
chain: DPNEAVREFAKEIDVSYVKIEEVIGAGEFGEVCRGRLKAPGKKESCVAIKTLKGGYTERQRREFLSEASIMGQFEHPNIIRLEGVVTNSMPVMILTEFMENGALDSFLRLNDGQFTVIQLVGMLRGIASGMRYLAEMSYVHRDLAARNILVNSNLVCKVSDFGLSRFLEENSSDPTYTSSLGGKIPIRWTAPEAIAFRKFTSASDAWSYGIVMWEVMSFGERPYWDMSNQDVINAIEQDYRLPPPPDCPTSLHQLMLDCWQKDRNARPRFPQVVSALDKMIRNPASLKIVARENG
notes: kinase domain 598-892 without juxtamembrane region; N-terminal His6-TEV tag cleaved (GSS left); E. coli BL21 Star (DE3), PTP1B and GroES/GroEL co-expressed; unphosphorylated; synthetic codon-optimized gene
Km [5]: 497 ± 39 µM | kcat [5]: 0.51 ± 0.01 s⁻¹
